Results on six molecules are retold here after patent US20200317768A1 (published 2020).

Holding throughout (assay): SPR (BIACORE), antibody captured, FcgR analyte
A general note: SPR reads the build-up and loss of mass on a sensor chip optically.

Assay [1] addresses T1, human FcγRIIaR extracellular domain with C-terminal His-tag (human, UniProt P12318 34-217).
T1 construct: also called human FcgRIIaR; FcγRIIa (type R)
T1 chain: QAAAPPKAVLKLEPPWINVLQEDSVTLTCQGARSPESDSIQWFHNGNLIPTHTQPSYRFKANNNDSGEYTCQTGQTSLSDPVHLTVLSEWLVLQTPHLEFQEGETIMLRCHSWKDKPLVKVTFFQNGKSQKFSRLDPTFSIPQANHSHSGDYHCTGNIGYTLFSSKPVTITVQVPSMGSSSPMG
The procedure:
(§1) The kinetic analysis of interactions between these antibodies and FcγR was carried out using BIACORE® T200 or BIACORE® 4000 (GE Healthcare). HBS-EP+ (GE Healthcare) was used as the running buffer, and the measurement temperature was set to 25° C. A chip produced by immobilizing Protein A. Protein A/G or mouse anti-human IgG kappa light chain (BD Biosciences) onto a Series S Sensor Chip CM4 or CM5 (GE Healthcare) by the amine-coupling method was used. […] After the measurement, the antibody captured on the chip was washed off by allowing reaction with 10 mM glycine-HCl, pH1.5 and 25 mM NaOH so that the chip was regenerated and used repeatedly. The sensorgrams obtained as measurement results were analyzed by the 1:1 Langmuir binding model using the BIACORE® Evaluation Software to calculate the binding rate constant ka (L/mol/s) and dissociation rate constant kd (l/s), and the dissociation constant KD (mol/L) was calculated from these values. […] Regarding such interactions, KD values were calculated using the following 1:1 binding model described in BIACORE® T100 Software Handbook BR1006-48 Edition AE.
(§2) The behavior of interacting molecules according to the 1:1 binding model on BIACORE® can be described by Equation 1: Req=C·R max/(KD+C)+RI, wherein, Req is a plot of steady-state binding levels to analyte concentration. C is concentration, RI is bulk refractive index contribution in the sample, and Rmax is analyte binding capacity of the surface. When this equation is rearranged, KD can be expressed as Equation 2: KD=C·Rmax/(Req−RI)−C. KD can be calculated by substituting the values of Rmax, RI, and C into Equation 1 or Equation 2. From the current measurement conditions, RI=0, C=2 μmol/L can be used.

In assay [2] the target is T2, cynomolgus monkey FcγRIIa3 extracellular domain with C-terminal His-tag (cynomolgus monkey).
T2 construct: also called cyno FcgRIIa3; cynoFcγRIIa3
T2 chain: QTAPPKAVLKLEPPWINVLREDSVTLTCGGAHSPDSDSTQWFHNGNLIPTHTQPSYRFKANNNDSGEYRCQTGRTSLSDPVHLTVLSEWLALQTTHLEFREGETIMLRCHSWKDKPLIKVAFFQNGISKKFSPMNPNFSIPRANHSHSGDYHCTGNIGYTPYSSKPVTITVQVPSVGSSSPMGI
The procedure:
as §1, §2

Assay [3] deals with T3, cynomolgus monkey FcγRIIb extracellular domain with C-terminal His-tag (cynomolgus monkey).
T3 construct: also called cyno FcgRIIb; cynoFcγRIIb
T3 chain: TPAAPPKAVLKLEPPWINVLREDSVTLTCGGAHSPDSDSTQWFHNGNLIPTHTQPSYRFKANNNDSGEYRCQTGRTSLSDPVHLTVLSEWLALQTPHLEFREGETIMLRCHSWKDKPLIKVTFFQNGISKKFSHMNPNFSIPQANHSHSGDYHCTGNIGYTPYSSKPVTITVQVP
The procedure:
as §1, §2

The target in assay [4] is T4, human FcγRIIaH extracellular domain with C-terminal His-tag (human, UniProt P12318 34-217).
T4 construct: also called human FcgRIIaH; FcγRIIa (type H)
T4 sequence: T1 chain with R134H
The procedure: as §1, §2

For assay [5], the target named is T5, cynomolgus monkey FcγRIIa1 extracellular domain with C-terminal His-tag (cynomolgus monkey).
T5 construct: also called cyno FcgRIIa1; cynoFcγRIIa1
T5 chain: T2 chain with T95P, A121T, S128A, P133H, N135D
How it is done:
as §1, §2

Assay [6] deals with T6, human FcγRIIIaV extracellular domain with C-terminal His-tag (human, UniProt P08637 17-208).
T6 construct: also called human FcgRIIIaV
T6 sequence (P08637 17-208 F176V): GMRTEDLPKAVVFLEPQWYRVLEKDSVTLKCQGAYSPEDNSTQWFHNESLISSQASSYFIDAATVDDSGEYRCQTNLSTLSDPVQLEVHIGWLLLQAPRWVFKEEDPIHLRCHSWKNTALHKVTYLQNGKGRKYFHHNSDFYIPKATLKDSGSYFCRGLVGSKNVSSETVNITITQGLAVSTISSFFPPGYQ
The procedure:
as §1, §2

The target in assay [7] is T7, cynomolgus monkey FcγRIIa2 extracellular domain with C-terminal His-tag (cynomolgus monkey).
T7 construct: also called cyno FcgRIIa2; cynoFcγRIIa2
T7 chain: T2 chain with I127K, K130N, P133H, R142Q
How it is done: as §1, §2

Assay [8] concerns the target T8, cynomolgus monkey FcγRIIIaS extracellular domain with C-terminal His-tag (cynomolgus monkey, UniProt Q8SPW2 21-206 at identity 1.00)).
T8 construct: also called cyno FcgRIIIaS; cynoFcγRIIIaS
T8 chain: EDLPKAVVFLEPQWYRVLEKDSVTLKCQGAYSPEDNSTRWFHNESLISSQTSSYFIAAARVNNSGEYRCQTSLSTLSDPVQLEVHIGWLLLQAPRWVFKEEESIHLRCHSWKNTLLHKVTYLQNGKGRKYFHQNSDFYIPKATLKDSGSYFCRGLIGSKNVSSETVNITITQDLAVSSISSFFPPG
How it is done:
as §1, §2

Assay [9] has as its target T9, human FcγRIIb extracellular domain with C-terminal His-tag (human, UniProt P31994 43-217).
T9 construct: also called human FcgRIIb
T9 sequence: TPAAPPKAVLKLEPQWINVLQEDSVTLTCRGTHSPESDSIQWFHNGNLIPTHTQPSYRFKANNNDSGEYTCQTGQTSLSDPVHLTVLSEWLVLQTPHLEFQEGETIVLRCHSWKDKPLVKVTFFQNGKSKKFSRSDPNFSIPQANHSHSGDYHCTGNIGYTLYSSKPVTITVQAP
The procedure:
as §1, §2

Changes are numbered by the printed parent chain. Numbers in names are those of the source.

B1: M103205H795-MY533/M103202L889-SK1 (antibody, human IgG1, kappa)
heavy: QVTLKESGPVLVKPTETLTLTCTVSGIDLSHDDISWVRQAPGKGLEWVGIISYAGSTYYASWAKGRLTISKDTSKNQVVLTMTNMDPVDTATYYCARGVPAYSHGGDLWGQGTLVTVSSASTKGPSVFPLAPSSKSTSGGTAALGCLVKDYFPEPVTVSWNSGALTSGVHTFPAVLQSSGLYSLSSVVTVPSSSLGTQTYICNVNHKPSNTKVDKKVEPKSCDKTHTCPPCPAPEWLTGPVVFLFPPKPKDTLMISRTPEVTCVVVDVSDEDPEVKFNWYVDGVEVHNAKTKPREELYNSTYRVVSVLTVLHQDWLNGKEYKCKVSNKALPKPIEKTISKAKGQPREPQVYTLPPSREEMTKNQVSLTCLVKGFYPSDIAVEWESNGQPENNYKTTPPVLDSDGSFFLYSKLTVDKSRWQQGNVFSCSVMHEALHNHYTQKSLSLSP
light: DIVMTQSPATLSLSPGERATLSCTSSQSVYHANWLSWFQQKPGQPPKLLIYWASTLAYGVPSRFSGSGSGTDFTLTISSLQPEDAATYYCAGGYGGGRYAFGQGTKVEIKRTVAAPSVFIFPPSDEQLKSGTASVVCLLNNFYPREAKVQWKVDNALQSGNSQESVTEQDSKDSTYSLSSTLTLSKADYEKHKVYACEVTHQGLSSPVTKSFNRGEC
notes: Substitutions introduced into M103205H795-SG1, expressed with M103202L889-SK1 as light chain; EU numbering
By Kd is commonly meant the constant that tells how readily two partners part at equilibrium. For the molecule B1, the Kd in assay [1] stood at 200 nM; in [2], 1200 nM; in assay [3] it was 250 nM; in assay [4] it was 210 nM; in assay [5] it was 800 nM; in [6] it was 1800 nM. The values for the Kd in assay [7], in [8] and in assay [9] were 730 nM, 1100 nM and 950 nM, respectively.

B2: M103205H795-MY534/M103202L889-SK1 (antibody, human IgG1, kappa)
heavy: B1 heavy with W236L
light: B1 light
notes: as for B1
In the case of B2, the equilibrium dissociation constant (Kd) in assay [1] came to 190 nM; in [2], 1200 nM; in [3], 420 nM; in [4], 170 nM; in [5] it was 1300 nM; in [6], 4300 nM. The dissociation constant Kd in [7] stood at 1300 nM; in assay [8], 1700 nM; in [9], 120 nM.

B3: M103205H795-MY535/M103202L889-SK1 (antibody, human IgG1, kappa)
heavy: B1 heavy with A233G, V241S, L297Q
light: B1 light
notes: as for B1
As for B3, the equilibrium dissociation constant (Kd) in assay [1] amounted to 640 nM; in [2] it was 3000 nM; in assay [3] it was 410 nM; in assay [4] it was 390 nM; in assay [5], 1300 nM; in assay [6] it was 3200 nM. Also, the Kd in assay [7] worked out at 1400 nM; in assay [8], 2100 nM; in assay [9] it was 1900 nM.

B4: M103205H795-MY538/M103202L889-SK1 (A231G/L234W/G236T/H268D/Q295L/A330K) (antibody, human IgG1, kappa)
heavy: B1 heavy with A233G, V241S
light: B1 light
notes: as for B1
B4: the Kd amounted to 620 nM in assay [1]; 3000 nM in [2]; 280 nM in [3]; 250 nM in assay [4]; 960 nM in assay [5]; 5700 nM in assay [6]. Also, the Kd was found to be 1100 nM in assay [7], 2400 nM in [8] and 1300 nM in assay [9].

B5: M103205H795-MY537/M103202L889-SK1 (antibody, human IgG1, kappa)
heavy: B1 heavy with A233G
light: B1 light
notes: as for B1
With B5, the equilibrium dissociation constant (Kd) in assay [1] was 370 nM; in assay [2] it was 1400 nM; in [3] it was 320 nM; in [4], 280 nM; in assay [5], 1200 nM; in [6], 3300 nM. For the same molecule, the Kd in [7] turned out to be 1100 nM; in assay [8], 1500 nM; in [9] it was 1000 nM.

B6: M103205H795-MY536/M103202L889-SK1 (antibody, human IgG1, kappa)
heavy: B1 heavy with A233G, L297Q
light: B1 light
notes: as for B1
B6: the Kd in assay [1] turned out to be 220 nM; in assay [2], 980 nM; in assay [3] it was 400 nM; in assay [4], 290 nM; in [5], 1300 nM; in [6], 3700 nM. The Kd in [7] is 1100 nM; in assay [8], 1600 nM; in assay [9], 990 nM.
